Source: paper PMC8667020

Biological target: ASC^(H118A,F136A,W169A,K174A, L177A-L178A,L192A) (ASC-YFP binding site mutant) (UniProt Q9ULZ3)
Experiment: flow cytometry of ASC-YFP speck formation in transfected HEK293 cells
Settings: parent: est. 37, read off a plot

Chain of ASC-YFP (Q9ULZ3 whole entry H118A/F163A/W169A/K174A/L177A/L178A/L192A, change not shown): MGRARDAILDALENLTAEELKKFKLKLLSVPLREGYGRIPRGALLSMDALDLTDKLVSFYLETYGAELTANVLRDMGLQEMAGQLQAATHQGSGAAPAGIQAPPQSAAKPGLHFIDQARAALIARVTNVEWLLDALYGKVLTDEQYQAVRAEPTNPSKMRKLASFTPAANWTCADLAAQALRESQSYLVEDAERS

Work on “ASC-YFP (from UniProt Q9ULZ3) H118A; F136A; W169A; K174A; L177A; L178A; L192A” yielded an other: ASC specks (%) of 13%.
